Measurements from patent US20220323495A1.

How the values were obtained:
[1] = target: recombinant human EGFRvIII protein, native (human) (UniProt P00533); assay: ELISA on coated native recombinant antigen; Exp 1
[2] = target: recombinant human wild-type EGFR protein, native (human) (UniProt P00533); assay: ELISA on coated native recombinant antigen; Exp 1
[3] = target: recombinant human EGFRvIII protein, denatured (human) (UniProt P00533); assay: ELISA on coated denatured recombinant antigen; Exp 1
[4] = target: recombinant human wild-type EGFR protein, denatured (human) (UniProt P00533); assay: as above
[5] = target: recombinant human EGFRvIII protein, native (human) (UniProt P00533); assay: ELISA on coated native recombinant antigen; Exp 2, mAb 1 µg/ml
[6] = target: recombinant human wild-type EGFR protein, native (human) (UniProt P00533); assay: as above
[7] = target: recombinant human EGFRvIII protein, denatured (human) (UniProt P00533); assay: ELISA on coated denatured recombinant antigen; Exp 2, mAb 1 µg/ml
[8] = target: recombinant human wild-type EGFR protein, denatured (human) (UniProt P00533); assay: as above

ELISA absorbance (405 nm) [1] [A405] | ELISA absorbance (405 nm) [2] [A405] | ELISA absorbance (405 nm) [3] [A405] | ELISA absorbance (405 nm) [4] [A405] | ELISA absorbance (405 nm) [5] [A405] | ELISA absorbance (405 nm) [6] [A405] | ELISA absorbance (405 nm) [7] [A405] | ELISA absorbance (405 nm) [8] [A405] | Substance
1.08 | 1.2 | 0.001 | -0.01 | 1.5 | 1.32 | 0.004 |  | 225 monoclonal antibody (ATCC HB-8508)
 |  |  |  | -0.001 |  |  | 0 | Neg ctrl mouse mAb (antibody)
